# Results: publication PMC10099770
# Residue numbers refer to the chain shown, from its start. Numbers in names are those of the source.
# B1: FLAG-TNK1, Q13470 S502A (protein)
# chain: MLPEAGSLWLLKLLRDIQLAQFYWPILEELNVTRPEHFDFVKPEDLDGIGMGRPAQRRLSEALKRLRSGPKSKNWVYKILGGFAPEHKEPTLPSDSPRHLPEPEGGLKCLIPEGAVCRGELLGSGCFGVVHRGLWTLPSGKSVPVAVKSLRVGPEGPMGTELGDFLREVSVMMNLEHPHVLRLHGLVLGQPLQMVMELAPLGSLHARLTAPAPTPPLLVALLCLFLRQLAGAMAYLGARGLVHRDLATRNLLLASPRTIKVADFGLVRPLGGARGRYVMGGPRPIPYAWCAPESLRHGAFSSASDVWMFGVTLWEMFSGGEEPWAGVPPYLILQRLEDRARLPRPPLCSRALYSLALRCWAPHPADRPSFSHLEGLLQEAGPSEACCVRDVTEPGALRMETGDPITVIEGSSSFHSPDSTIWKGQNGRTFKVGSFPASAVTLADAGGLPATRPVHRGTPARGDQHPGSIDGDRKKANLWDAPPARGQRRNMPLERMKGISRALESVLSLGPRPTGGGSSPPEIRQARAVPQGPPGLPPRPPLSSSSPQPSQPSRERLPWPKRKPPHNHPMGMPGARKAAALSGGLLSDPELQRKIMEVELSVHGVTHQECQTALGATGGDVVSAIRNLKVDQLFHLSSRSRADCWRILEHYQWDLSAASRYVLARP
# B2: FLAG-TNK1, Q13470 T392A (protein)
# chain: B1 chain with T392A, A502S
# B3: FLAG-TNK1, Q13470 S68A (protein)
# chain: B1 chain with S68A, A502S
# B4: FLAG-TNK1, Q13470 T91A (protein)
# chain: B1 chain with T91A, A502S
# B5: FLAG-TNK1, Q13470 S434A (protein)
# chain: B1 chain with S434A, A502S
# Molecular target: FLAG-AKAP13 T2467A (UniProt Q12802)
# UniProt Q12802, sequence (Q12802 whole entry T2467A): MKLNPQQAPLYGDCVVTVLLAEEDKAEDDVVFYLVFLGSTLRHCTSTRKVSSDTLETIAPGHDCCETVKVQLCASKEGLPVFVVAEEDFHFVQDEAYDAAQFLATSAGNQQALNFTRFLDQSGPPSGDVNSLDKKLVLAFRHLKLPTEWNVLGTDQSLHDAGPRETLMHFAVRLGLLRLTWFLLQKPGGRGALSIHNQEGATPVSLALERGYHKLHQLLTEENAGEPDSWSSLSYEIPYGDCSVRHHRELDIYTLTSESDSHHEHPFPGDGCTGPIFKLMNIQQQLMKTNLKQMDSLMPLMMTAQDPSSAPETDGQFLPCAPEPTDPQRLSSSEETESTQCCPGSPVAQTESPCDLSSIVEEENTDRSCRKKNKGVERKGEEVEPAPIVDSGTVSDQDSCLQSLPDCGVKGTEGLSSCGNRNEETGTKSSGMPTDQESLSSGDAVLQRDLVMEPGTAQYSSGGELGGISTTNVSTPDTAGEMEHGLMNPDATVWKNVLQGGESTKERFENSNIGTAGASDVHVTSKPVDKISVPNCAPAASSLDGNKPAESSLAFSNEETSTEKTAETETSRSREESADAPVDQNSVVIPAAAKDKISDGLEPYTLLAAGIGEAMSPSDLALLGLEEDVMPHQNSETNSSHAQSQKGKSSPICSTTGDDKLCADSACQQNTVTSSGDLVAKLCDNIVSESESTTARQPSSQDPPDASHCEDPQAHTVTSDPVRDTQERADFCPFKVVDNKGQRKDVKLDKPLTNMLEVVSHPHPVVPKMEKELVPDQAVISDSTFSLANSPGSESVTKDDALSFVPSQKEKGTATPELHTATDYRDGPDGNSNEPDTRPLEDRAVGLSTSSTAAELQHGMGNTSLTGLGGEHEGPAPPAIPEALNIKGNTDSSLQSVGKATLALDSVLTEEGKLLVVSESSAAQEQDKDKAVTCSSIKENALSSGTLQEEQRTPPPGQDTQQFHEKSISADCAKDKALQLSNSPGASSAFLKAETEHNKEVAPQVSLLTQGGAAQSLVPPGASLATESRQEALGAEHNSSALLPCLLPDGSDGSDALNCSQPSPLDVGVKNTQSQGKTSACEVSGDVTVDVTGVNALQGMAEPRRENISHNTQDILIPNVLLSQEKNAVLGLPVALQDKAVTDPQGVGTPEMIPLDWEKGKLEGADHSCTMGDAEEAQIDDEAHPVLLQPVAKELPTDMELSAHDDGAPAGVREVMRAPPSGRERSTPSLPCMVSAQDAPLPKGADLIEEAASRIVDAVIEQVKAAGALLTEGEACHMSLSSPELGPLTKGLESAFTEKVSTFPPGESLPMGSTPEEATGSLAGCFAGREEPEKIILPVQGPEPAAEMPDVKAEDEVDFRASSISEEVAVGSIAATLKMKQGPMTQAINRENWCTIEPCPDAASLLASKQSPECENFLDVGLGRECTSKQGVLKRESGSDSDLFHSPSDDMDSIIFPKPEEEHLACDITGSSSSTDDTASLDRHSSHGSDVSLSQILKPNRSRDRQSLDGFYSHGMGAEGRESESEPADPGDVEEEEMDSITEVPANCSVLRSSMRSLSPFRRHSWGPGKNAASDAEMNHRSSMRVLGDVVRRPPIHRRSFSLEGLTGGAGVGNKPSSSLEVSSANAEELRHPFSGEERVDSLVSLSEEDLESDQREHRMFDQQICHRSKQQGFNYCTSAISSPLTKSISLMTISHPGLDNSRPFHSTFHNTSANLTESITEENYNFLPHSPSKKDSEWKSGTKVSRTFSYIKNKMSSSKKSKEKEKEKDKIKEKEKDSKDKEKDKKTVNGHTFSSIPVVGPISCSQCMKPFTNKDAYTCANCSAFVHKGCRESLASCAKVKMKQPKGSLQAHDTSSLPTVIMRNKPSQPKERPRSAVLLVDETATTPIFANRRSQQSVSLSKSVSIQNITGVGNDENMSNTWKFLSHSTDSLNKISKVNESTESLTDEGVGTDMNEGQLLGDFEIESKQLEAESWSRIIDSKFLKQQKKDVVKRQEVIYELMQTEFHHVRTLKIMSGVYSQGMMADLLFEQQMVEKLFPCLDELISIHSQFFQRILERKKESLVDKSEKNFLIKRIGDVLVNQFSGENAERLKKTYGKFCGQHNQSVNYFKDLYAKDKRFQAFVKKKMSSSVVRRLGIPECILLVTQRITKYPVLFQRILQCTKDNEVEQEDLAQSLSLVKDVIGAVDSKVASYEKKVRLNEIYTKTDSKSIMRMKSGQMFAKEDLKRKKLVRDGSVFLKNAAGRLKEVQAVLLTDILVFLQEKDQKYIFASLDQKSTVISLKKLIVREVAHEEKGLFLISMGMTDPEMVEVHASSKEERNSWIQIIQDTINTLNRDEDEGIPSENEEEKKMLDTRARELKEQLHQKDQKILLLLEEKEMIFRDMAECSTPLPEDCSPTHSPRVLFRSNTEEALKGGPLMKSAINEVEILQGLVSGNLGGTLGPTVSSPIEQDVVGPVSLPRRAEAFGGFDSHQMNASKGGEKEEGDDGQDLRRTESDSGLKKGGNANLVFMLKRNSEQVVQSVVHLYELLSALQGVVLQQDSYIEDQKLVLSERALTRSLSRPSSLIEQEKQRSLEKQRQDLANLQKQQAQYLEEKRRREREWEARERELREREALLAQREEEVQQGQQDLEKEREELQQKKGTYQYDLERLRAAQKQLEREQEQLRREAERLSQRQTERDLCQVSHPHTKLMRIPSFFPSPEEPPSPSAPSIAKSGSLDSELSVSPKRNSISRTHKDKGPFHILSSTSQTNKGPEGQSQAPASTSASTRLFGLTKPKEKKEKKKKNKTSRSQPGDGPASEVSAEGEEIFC
# Test: co-IP; FLAG construct precipitated from transfected HEK293T lysate on anti-DYKDDDDK resin or DYKDDDDK Fab-Trap agarose, 1 hour at 4 °C; lysis buffer 10 mM HEPES KOH pH 7.5, 150 mM KCl, 0.01% IGEPAL with protease and phosphatase inhibitors; washed with PBS three times; immunoblot for 14-3-3
# Conditions: not given
row,Molecule,loss of co-precipitated 14-3-3 against wild-type AKAP13 [%]
1,14-3-3 (from UniProt P63104 1-245) (natural protein),> 50

# Molecular target: T1, 14-3-3, P63104
# T1 chain: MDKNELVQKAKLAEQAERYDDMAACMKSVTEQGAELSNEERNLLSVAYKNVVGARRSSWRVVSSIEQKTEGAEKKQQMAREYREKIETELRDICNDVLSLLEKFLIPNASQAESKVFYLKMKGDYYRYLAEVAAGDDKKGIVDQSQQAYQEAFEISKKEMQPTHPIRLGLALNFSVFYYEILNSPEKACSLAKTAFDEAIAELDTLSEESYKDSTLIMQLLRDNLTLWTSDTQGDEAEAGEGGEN
# Test: co-immunoprecipitation (IP: FLAG) with immunoblot quantification
# Conditions: chain shown with the change; HEK293T cells; 3 biological replicates; parent: est. 1.0; read off a plot
row,Molecule,ratio to parent
1,B1,0.14
2,B2,0.67
3,B3,0.8
4,B4,0.84
5,B5,0.88
